From the supplement of paper PMC10126150
± gives the standard deviation of the averaged measurements.

These sequences were tested on ATP (assay: switch fluorescence ratio, 500 uM ATP over buffer (Cy3 cluster intensity, sum of 5 cycles each) (fold (ratio)); higher = stronger signal-on switching upon ATP binding; sequences stand for … in TCGTCGGCAGCGTCAGATGTGTATAAGAGACAGTTTTTTTTTTTTTTTTTTTTTTTTT…TC). Conditions: aptamer strand: ATP DNA aptamer (quencher-CACCTGGGGGAGTATTGCGGAGGAAGG + anchor), 100 nM annealed; ATP concentration: 500 uM.
Outline: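 Cy3-labelled switching-strand clusters on a modified Illumina MiSeq flow-cell were annealed to 100 nM quencher-labelled ATP aptamer, imaged in selection buffer, then imaged after 15 min with 500 uM ATP at 22 °C. Five buffer/ATP cycles ran, with NaOH stripping and re-annealing between them. The fluorescence ratio is summed target-cycle over summed buffer-cycle Cy3 intensity per cluster, averaged per switch-domain sequence. Clusters outside 100-1000 RFU were excluded.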
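Note: ATP exposure 15 min at 22 °C before imaging.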

Sequence	switch fluorescence ratio
ATTCGGGGAC	1.058 ± 0.009
ATTCGGGGTG	1.05 ± 0.11
ATTCGGGTTG	0.985 ± 0.029
ATTCGTATGT	1.03 ± 0.03
ATTCGTGGGG	0.97 ± 0.032
ATTCTAACGA	1.032 ± 0.0036
ATTCTACTGA	1.06 ± 0.062
ATTCTACTTA	1.01 ± 0.018
ATTCTCGTGC	1.012 ± 0.0074
ATTCTGACAC	1.07 ± 0.028
ATTCTGGGGG	1.04 ± 0.048
ATTCTGTACG	1.05 ± 0.023
ATTCTGTCGT	1 ± 0.021
ATTCTGTGGT	0.97 ± 0.019
ATTCTTAATG	1.01 ± 0.021
ATTCTTTGCC	1.003 ± 0.006
ATTGAAGGGT	0.981 ± 0.034
ATTGAATATT	0.9935 ± 0.0015
ATTGAATCAT	1.005 ± 0.0033
ATTGAATTAA	1.04 ± 0.02
ATTGAATTGT	0.991 ± 0.037
ATTGAGCCTG	0.991 ± 0.022
ATTGAGGAGA	0.999 ± 0.033
ATTGAGGCAG	0.9824 ± 0.0028
ATTGAGGTTT	0.992 ± 0.022

Sequence	switch fluorescence ratio
ATTGAGTTCT	1 ± 0.012
ATTGATATGG	0.981 ± 0.04
ATTGATCGAT	1.02 ± 0.035
ATTGATGT	1.0234 ± 0.00096
ATTGATTAAC	1.013 ± 0.0043
ATTGATTAGA	0.99 ± 0.043
ATTGATTC	0.9868 ± 0.0031
ATTGATTGTG	0.983 ± 0.026
ATTGATTTGC	0.997 ± 0.058
ATTGCATAAT	1.06 ± 0.078
ATTGCATTTT	1.28 ± 0.43
ATTGCCCGCG	1.0228 ± 0.00058
ATTGCCGTCA	0.998 ± 0.024
ATTGCGGGCA	0.982 ± 0.035
ATTGCGTTAT	1.03 ± 0.018
ATTGCTGGGT	0.985 ± 0.033
ATTGCTGTAC	1.56 ± 0.048
ATTGCTGTTC	1.03 ± 0.037
ATTGCTTTGG	0.9976 ± 0.0015
ATTGGAAAGG	0.985 ± 0.031
ATTGGAAGTT	0.997 ± 0.014
ATTGGAATGC	1.26 ± 0.047
ATTGGAATTG	1.02 ± 0.035
ATTGGAGTCG	0.9477 ± 0.0084
ATTGGATAGG	1.01 ± 0.012

Sequence	switch fluorescence ratio
ATTGGCAATA	2.36 ± 1.9
ATTGGCACGC	1.36 ± 0.42
ATTGGCAGGC	1.05 ± 0.057
ATTGGGAGAG	1.02 ± 0.035
ATTGGGAGC	0.956 ± 0.015
ATTGGGATT	0.966 ± 0.046
ATTGGGCATT	1.018 ± 0.006
ATTGGGGAAG	0.996 ± 0.049
ATTGGGGACT	1.01 ± 0.019
ATTGGGGAT	1.02 ± 0.018
ATTGGGGCCG	1.01 ± 0.016
ATTGGGGCTG	0.9677 ± 0.006
ATTGGGGGT	1.026 ± 0.0062
ATTGGGGGTC	0.995 ± 0.05
ATTGGGTAGG	0.993 ± 0.025
ATTGGTACTT	0.986 ± 0.058
ATTGGTATGC	1.03 ± 0.011
ATTGGTCCTG	0.999 ± 0.02
ATTGGTCTCA	0.975 ± 0.023
ATTGGTTAAA	1 ± 0.026
ATTGTAACAA	1.037 ± 0.0089
ATTGTAAGAT	0.994 ± 0.027
ATTGTAGGAC	1.01 ± 0.036
ATTGTCATGT	1.047 ± 0.0062
ATTGTCTATA	0.981 ± 0.011

Sequence	switch fluorescence ratio
ATTGTGAGGT	0.992 ± 0.039
ATTGTGGGTC	1.04 ± 0.02
ATTGTGGTTT	1.01 ± 0.034
ATTGTGTCTG	1 ± 0.042
ATTGTTATAT	1 ± 0.03
ATTGTTATCG	1.02 ± 0.14
ATTGTTTAAT	1.03 ± 0.017
ATTGTTTGAT	1.01 ± 0.022
ATTGTTTGCA	1.02 ± 0.056
ATTGTTTGGC	1 ± 0.027
ATTGTTTTTA	0.998 ± 0.033
ATTGTTTTTT	0.995 ± 0.01
ATTTAAGTGC	0.981 ± 0.049
ATTTAAGTTG	0.987 ± 0.015
ATTTAATGAA	0.982 ± 0.021
ATTTAATTCT	0.9981 ± 0.0077
ATTTACCCTG	1.08 ± 0.022
ATTTACGCCT	1.12 ± 0.05
ATTTACGTAT	1.06 ± 0.044
ATTTACGTCT	1.04 ± 0.056
ATTTAGACTA	1.01 ± 0.027
ATTTAGGACA	1.01 ± 0.021
ATTTAGGCAT	0.987 ± 0.042
ATTTAGGGGA	1.04 ± 0.056
ATTTAGTAGT	0.994 ± 0.057
